Experimental findings from article PMC8766458, “Deciphering the mechanism of processive ssDNA digestion by the Dna2-RPA ensemble” (Nature Communications, 2022) are described below.

In this data set the target is dna2-D657A (nuclease-dead);RPA (Saccharomyces cerevisiae;Saccharomyces …, UniProt P38859;P22336;P26754;P26755 1-1522;1-621;1-273;1-122, D657A|). The data set can be described thus: EMSA; ternary complex; EMSA: 25 mM Tris-HCl pH 7.5, 150 mM KCl, 1 mM DTT, 100 µg/mL BSA, 5 nM DNA, 30 °C 10 min, 4% native PAGE in 0.2x TBE; DNA curtains: 50 or 150 mM NaCl, 0.1 nM RPA-GFP. Conditions: protein: recombinant;recombinant; tags: His6, FLAG;none; copies: 1;1;1;1; label: 32P 5'-end; 5' overhang 30 nt (dT30), 20 bp duplex. (A gel shift assay detects complexes by their altered migration in electrophoresis.)
Chain of dna2-D657A (nuclease-dead);RPA (P38859 whole entry D657A, chain 1 of 4): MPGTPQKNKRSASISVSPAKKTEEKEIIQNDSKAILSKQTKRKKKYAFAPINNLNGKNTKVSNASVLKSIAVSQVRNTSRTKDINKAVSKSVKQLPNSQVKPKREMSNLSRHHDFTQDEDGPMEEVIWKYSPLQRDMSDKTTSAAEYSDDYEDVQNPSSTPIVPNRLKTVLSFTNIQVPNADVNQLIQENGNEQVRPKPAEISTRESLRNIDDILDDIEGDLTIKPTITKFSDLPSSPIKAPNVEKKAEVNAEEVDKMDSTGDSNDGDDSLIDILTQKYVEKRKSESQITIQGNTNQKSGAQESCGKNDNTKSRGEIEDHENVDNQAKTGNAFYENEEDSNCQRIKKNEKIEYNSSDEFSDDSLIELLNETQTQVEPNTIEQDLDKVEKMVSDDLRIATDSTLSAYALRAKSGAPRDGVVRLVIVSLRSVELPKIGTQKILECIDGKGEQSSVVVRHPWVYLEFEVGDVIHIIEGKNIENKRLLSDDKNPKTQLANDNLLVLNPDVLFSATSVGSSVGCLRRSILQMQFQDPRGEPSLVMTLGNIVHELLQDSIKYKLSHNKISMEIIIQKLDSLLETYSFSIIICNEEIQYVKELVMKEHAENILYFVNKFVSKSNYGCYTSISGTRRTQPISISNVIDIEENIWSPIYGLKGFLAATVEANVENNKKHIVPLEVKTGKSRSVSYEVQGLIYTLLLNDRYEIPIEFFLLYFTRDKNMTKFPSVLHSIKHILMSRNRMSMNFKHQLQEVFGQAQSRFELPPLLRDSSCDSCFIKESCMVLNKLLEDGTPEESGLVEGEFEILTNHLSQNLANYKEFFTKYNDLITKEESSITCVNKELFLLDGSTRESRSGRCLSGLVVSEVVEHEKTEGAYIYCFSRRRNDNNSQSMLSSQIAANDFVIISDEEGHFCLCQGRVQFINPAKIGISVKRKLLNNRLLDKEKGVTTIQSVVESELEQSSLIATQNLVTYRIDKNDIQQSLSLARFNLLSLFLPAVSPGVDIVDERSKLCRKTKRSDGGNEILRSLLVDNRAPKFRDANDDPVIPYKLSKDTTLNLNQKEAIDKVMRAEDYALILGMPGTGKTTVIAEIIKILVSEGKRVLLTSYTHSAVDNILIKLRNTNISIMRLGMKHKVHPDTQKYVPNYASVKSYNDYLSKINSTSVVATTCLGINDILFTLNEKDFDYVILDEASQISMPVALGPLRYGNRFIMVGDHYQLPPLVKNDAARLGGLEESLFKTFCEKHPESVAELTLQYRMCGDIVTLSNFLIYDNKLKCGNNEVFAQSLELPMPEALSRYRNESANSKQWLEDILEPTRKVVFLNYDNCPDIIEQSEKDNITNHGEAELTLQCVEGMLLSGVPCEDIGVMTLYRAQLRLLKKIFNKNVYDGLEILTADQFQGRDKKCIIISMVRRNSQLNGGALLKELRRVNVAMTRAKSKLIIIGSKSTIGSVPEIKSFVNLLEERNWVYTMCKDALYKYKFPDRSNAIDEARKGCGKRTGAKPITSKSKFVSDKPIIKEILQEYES
Chain of dna2-D657A (nuclease-dead);RPA (P22336 whole entry, chain 2 of 4): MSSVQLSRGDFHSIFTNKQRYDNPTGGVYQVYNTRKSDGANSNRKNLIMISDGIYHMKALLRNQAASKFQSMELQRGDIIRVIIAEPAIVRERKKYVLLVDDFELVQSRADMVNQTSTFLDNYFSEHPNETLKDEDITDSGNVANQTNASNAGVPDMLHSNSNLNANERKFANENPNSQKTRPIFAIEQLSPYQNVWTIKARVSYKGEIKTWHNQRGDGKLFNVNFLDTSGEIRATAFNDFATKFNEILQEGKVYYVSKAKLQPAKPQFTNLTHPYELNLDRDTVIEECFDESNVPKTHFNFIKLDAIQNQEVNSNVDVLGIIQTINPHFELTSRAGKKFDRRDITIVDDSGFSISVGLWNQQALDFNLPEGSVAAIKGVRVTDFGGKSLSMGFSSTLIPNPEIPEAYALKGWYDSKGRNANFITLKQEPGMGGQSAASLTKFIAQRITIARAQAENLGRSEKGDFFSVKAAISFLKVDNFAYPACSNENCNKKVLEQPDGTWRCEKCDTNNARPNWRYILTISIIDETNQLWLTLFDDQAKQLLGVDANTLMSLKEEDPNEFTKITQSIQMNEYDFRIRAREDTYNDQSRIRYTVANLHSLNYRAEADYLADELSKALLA
Chain of dna2-D657A (nuclease-dead);RPA (P26754 whole entry, chain 3 of 4): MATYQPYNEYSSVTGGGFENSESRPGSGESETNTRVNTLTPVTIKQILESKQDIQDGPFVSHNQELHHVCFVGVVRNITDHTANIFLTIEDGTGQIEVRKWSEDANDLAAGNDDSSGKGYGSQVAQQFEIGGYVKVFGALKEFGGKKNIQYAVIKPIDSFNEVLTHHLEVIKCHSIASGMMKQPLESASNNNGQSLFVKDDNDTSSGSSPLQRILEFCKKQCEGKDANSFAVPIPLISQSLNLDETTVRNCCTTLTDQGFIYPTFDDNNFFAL
Chain of dna2-D657A (nuclease-dead);RPA (P26755 whole entry, chain 4 of 4): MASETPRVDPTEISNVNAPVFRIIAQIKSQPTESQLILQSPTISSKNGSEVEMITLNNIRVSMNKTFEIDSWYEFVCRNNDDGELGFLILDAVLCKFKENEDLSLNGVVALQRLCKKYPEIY

B1: 5'-overhanging dT(30) DNA (S10+S11) (mixed)
DNA 1: TTTTTTTTTTTTTTTTTTTTTTTTTTTTTTTTGATAAGAGGTCATTTGAA
DNA 2: TTCAAATGACCTCTTATCAA
Turning to B1, the binding result was “binds”.
